Experimental data reported in the nanobody polyreactivity screen of Harvey et al. (2022).

Test: yeast display, Sf9 membrane polyspecificity reagent, FACS + sequencing; frameworks hold sequencing errors
Summary of the method: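 A synthetic nanobody library was expressed on Saccharomyces cerevisiae BJ5465 by galactose induction for 36–48 hours. The library was stained for 1 hour at 4 °C with 10% biotinylated, detergent-solubilized Sf9 membrane reagent and enriched with streptavidin microbeads before FACS. Low and high (top ~1%) gates were set on anti-HA fluorescence for expression and streptavidin fluorescence for reagent binding, and each polyreactivity label reflects the gate of origin.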

| Sequence | polyreactivity (PSR sort gate) |
| --- | --- |
| QVQLVESGGGLVQAGGSLRLSCAAYGRTFSWNAMGWYRQAPGKERELVAGITGRGRSTYYADSVKGRFTISRDNAKNTVYLQMIRLKPEDTAVYYCAARNWQALYYGYGYDYWGHGTQVTVSS | high polyreactivity |
| QVQLVESGGGLVQAGGSLRLSCAAYGRTIFFNAMGWYIQAPGKERELVAAISRGGSRTFYADSVKGRFTISRDNAKNTVYFQMNSLKPEDPAVYYCNAVAQSGRYDYWGQGTQVTVPS | high polyreactivity |
| QVQLVESGGGLVQAGGSLRLSCAAYGSIFGYYAMGWYRQAPVKERALVAAITWSGDSTYYADSVKGRFTISRDNAKNTVYLQMKSLNPEDTAVYYCSARQFVHTRYFSFGYWGQGTQVTVSS | low polyreactivity |
| QVQLVESGGGLVQAGGSLRLSCAAYGSIFHVYAMGWYRQAPGKERELVAAIDRSGGSTYYADSVKGRFTISRDNAKNTVYLQMNSLKPEDTSVYYCAKDVLGGQITDGVGNDYWGQGTQVTLSS | low polyreactivity |
| QVQLVESGGGLVQAGGSLRLSCAAYGSIFLYYTMGRYRQAPGKERELVAAISRSGGSTYYADSEKGRFTISRDNALNTVYLQMNSLKPEDTAVYFCGSRSGYIYEYWGQGTQVTVSS | high polyreactivity |
| QVQLVESGGGLVQAGGSLRLSCAAYGSIFRVYAMGWYREAAGKERELVATISWSAGSTYYADSVKGRFTISRDNAKNTVYLQMNSLKPEDTAVYYCAADPVGYYDPSDYWGQGTQVTVSS | low polyreactivity |
| QVQLVESGGGLVQAGGSLRLSCAAYGSIFSYNAMGWYRPAPGKERELVAAITKSGGRTYYADSVKGRFTISRANAKNTVYLQMNSLKPEDTAVYYCNARSGSQYDYWGQGTQVTVSS | high polyreactivity |
| QVQLVESGGGLVQAGGSLRLSCAAYGSIFTGNTMGWYRQATGKERELVATISRRGGSTYYADSVKGRFTISRDNAKNTVYLQMNSLKPEDTAVYYCARGTVYLTWRNDYWGQGTQVTVSS | high polyreactivity |
| QVQLVESGGGLVQAGGSLRLSCAAYGSIFTRYAMGWYIQAPGKERELVAAISKRGGRTYYADSVKGRFTISRDNAKNTVYLQMNSLKPEDTAVYYCNAGSYDYYDGSWSYDYWGQGTQVTVSS | high polyreactivity |
| QVQLVESGGGLVQAGGSLRLSCAAYGSIFYFNAMGWYRQAPGKERELVAAITYNGGSTRYADSVKGRFTISRDNAKNTVYLQMNSLKPEDTAVYYCAARAKYGPEDGYWGQGTQVTVSS | high polyreactivity |
| QVQLVESGGGLVQAGGSLRLSCAAYGSIFYYYAKGWYRQAPGKERELVAAINGGDTYYADSVKGRFTISRDNAKNTVYLHMNSLKPEDTAVYYCAAEGVTVEWDYDYWGQGTQVTVSS | low polyreactivity |
| QVQLVESGGGLVQAGGSLRLSCAAYGSTFDRNAMGWYRQAPGKERDLVAAISWRGGSTYYSDSVKGRFTISRDNAKNTVYLQMNSLKPDDTAVYYCNKVVTWQGPYDYWGQGTQVTVSS | high polyreactivity |
| QVQLVESGGGLVQAGGSLRLSCAAYGSTFDRNVMGWYRQAPGKERELVAAISRVSSTNYADSVKGRFTISRDNAKNTVYLQMNSLKPEDTAVYYCAADRPGSIMNYWGQGTQVTVSS | low polyreactivity |
| QVQLVESGGGLVQAGGSLRLSCAAYGSTFKPYAMGRYRQAPGKERELVADITGGGSTNYADSVKGRFTISRDNAKNTVYLQMNSLKPEDTAVYYCNADPVRSTYSYDYWGQGTQVTVSS | low polyreactivity |
| QVQLVESGGGLVQAGGSLRLSCAAYGSTFTYYAMGWYRQAPGKERELVAAISSSGGSTYYADSVKGRFTISRDNAKNTVYFQMNSLKPEDTAVYYCAARRKFPYRHDYWGQGTQVTVSS | high polyreactivity |
| QVQLVESGGGLVQAGGSLRLSCAAYGSTFVSNAMGWSRPAPGKERELVAAISSSGGSTYYADSVKGRFTISRDTATNTVYLQMNSLKPEDTAVYYCVDYYNGYTHNYNYWGQGTQVTVSA | low polyreactivity |
| QVQLVESGGGLVQAGGSLRLSCAAYGSTFWVYAMVWYRQAPGKERELVAAIDYSGGSTYYADSVKGRFTISRDNAKNNVYLQMNSLKPEDTAVYYCAAGEGQYWLWDGEGEYDYWGQGTQVTVSS | low polyreactivity |
| QVQLVESGGGLVQAGGSLRLSCAAYGYIFIRNAMGCYRQAPGKERELVAAISWTGGNTYYADSVKGRFTISRDNAKNTVYLQMNSLIPEDTAVYYCAAQRSVFKSFRTTYVSYDYWGQGTQVTVSS | high polyreactivity |
| QVQLVESGGGLVQAGGSLRLSCADSARTFYTNAKGWYRQAPGKERELVAAITGSDGNTYYADSVKGRFTISRDNAKNTVYLQMISLKPEDTAVYYGYDYWVQGTQVTVSS | low polyreactivity |
| QVQLVESGGGLVQAGGSLRLSCADSGFIFYFYTKGCYIQSPGKDRELVSGITWLDGSTYYADSVKGRFTISRDNAKNTVYLQMNSLKPEDTAVYYCNRDQWPWESGYAYNYWGQGTQVTVSS | low polyreactivity |
| QVQLVESGGGLVQAGGSLRLSCADSGFTFVEYAMGWYRQAPGKERELVAAITRSGTRTYYADSVKGRFTISRDNAKNTVYLQMNSLKPEDTAVYYCNKPYSKTNHYDSWGQGTQVTVSS | high polyreactivity |
| QVQLVESGGGLVQAGGSLRLSCADSGIIFHEYAMGWYRQAPGKERELVASISWNDGSTYADSVKGRFTISRDNAKNTVYLQMNSLKPEDTAVYYCAADYPYYPFSSIYDYWGQGTQVTVSS | low polyreactivity |

| Sequence | polyreactivity (PSR sort gate) |
| --- | --- |
| QVQLVESGGGLVQAGGSLRLSCADSGIIFITNAMGWYRQAPGKERELVAAISSTVSTNYADSVKGRFTISRDNAKNTVYLQMNSLIQEDTAVYFCAAEWGLTQGESIYDFWGQGTQVTVSS | low polyreactivity |
| QVQLVESGGGLVQAGGSLRLSCADSGIIFNYYAMGWSRQAPGKEREFVASITSSGSSTYYADSVKGRFTITRDNAKNTVYLQMNSLKPEDTAVYYCAARYLWPKQGGGWGYYSCGQGTQVTVSS | high polyreactivity |
| QVQLVESGGGLVQAGGSLRLSCADSGIIFTQYAMGWYRQAPGKERELVAGISKSGGSTYYADSVKGRFTISRDNAKNTVYLQMNSLKPEDTAVYYCAAPVPKTDKLLRMYYWGQGTQVTVSS | high polyreactivity |
| QVQLVESGGGLVQAGGSLRLSCADSGITFSRNAMGWYRQAPGKEMELVATITSGGSTNYADSVKGRFTISRDNAKNTVYLQMNSLKPEDTAVYYCNAVWNTFISGRSYDYWGQGTQVTVSS | low polyreactivity |
| QVQLVESGGGLVQAGGSLRLSCADSGITFWKYAMGWYRQAPGKERELVAAISGRGGSTYYADSVKGRFTISRDNAKNTVYLQMNSLKPEDTAVYYCAKYPGISGYNYWGQGTQVTVSS | high polyreactivity |
| QVQLVESGGGLVQAGGSLRLSCADSGITLYEYAMGWYRKAPGKERELVAAISTSGGRTRYADSVKGRFTISRDNAKNTVYLQMNSLKPEDTAVYYCAASGFVQISNPRRDYWGLGTQVTVSS | high polyreactivity |
| QVQLVESGGGLVQAGGSLRLSCADSGLIFKSYAMGWYRQARGKERELVAAISGNDGSTYYADSVKGRFTISRDNAKNTVYLQMNSLKPEDTAVYYCAADFSGPWYEYTFNYCGQGTQVTVSS | high polyreactivity |
| QVQLVESGGGLVQAGGSLRLSCADSGLIFYRYAMGWYRQAPGTERELVAAISGSVGSTYADSVKGRFTISRDNAKNTVYLQMNSLKPEDTVVYYCSRETYRSYGAYDYWGLGTQVTVSS | low polyreactivity |
| QVQLVESGGGLVQAGGSLRLSCADSGLILHKYAMGWYRQAPGKDRELVASINSGANTNYADSVKGRFTISRDNAKNTVYLQMNSLKPEDSAEYYCNADPGFRSGEYGYSSFDYWGQGTQVTVSS | low polyreactivity |
| QVQLVESGGGLVQAGGSLRLSCADSGLTFEGYAMGWNRQAPGKERELVAAITWSGGNTYYADSVKGRFTSSRDNAKKTVYLQMNSLKPEDTAVYYCAAQRPSRDSRPFEYWGQGTQVTVSS | low polyreactivity |
| QVQLVESGGGLVQAGGSLRLSCADSGRIFFDYAMGWYRQAPGKERELVAAISYRGGDTYYADSVKGRFTISRDNAKNTVYLQMNSLIPEDTAVYYCAATGGYYEYWGQGTQVTVSS | low polyreactivity |
| QVQLVESGGGLVQAGGSLRLSCADSGRIFGINAKGWYRQAPGKARELVASISRRVGRTSYADSVKGRFTISRDNAKNTVYLQMNSLKPEDTAGYFCAADVWNDGSWTDYDYWGQGTQVTVSS | high polyreactivity |
| QVQLVESGGGLVQAGGSLRLSCADSGRIFNPYAMGWYRQAPGKERELVAGISWGGGSTRYADSVKGRFTISRDNAKNTVYLQMNSLKPVDTAVYYCNSGSYYKRFDYWGKGTQVTVSS | high polyreactivity |
| QVQLVESGGGLVQAGGSLRLSCADSGRIFSSNAIGWYRQAPGQERELVASISSTGSTKYADSVKGRFTISRDNAKNTVYVQMNSLKPEDTAVYYCAAGSYLWHFTFDYWGQGTQVTVSS | low polyreactivity |
| QVQLVESGGGLVQAGGSLRLSCADSGRIFSWNAMGRYRQAPRKERELVAAISSSGARTYYADSVKGRFTISRDNAKNTVYLQMNSLKPEDTAVYYCIAARSSQHYYSYNYWGQGTQVTVSS | high polyreactivity |
| QVQLVESGGGLVQAGGSLRLSCADSGRIICWYAMGWYRQAPGKERELVAAISTGSRTYYADSVKGRFTISRDNAKTTVYLQMNSLKPEDTAVYYCAASLYSGYVSWGQGTQVTVSS | low polyreactivity |
| QVQLVESGGGLVQAGGSLRLSCADSGRILPFYAMGWYRQAPGKERELVADISLSGGDTYYADSVKGRFTISRDNAKNTVYLQMNSLKPEDTAVYYCAKDRYQWLWSPEYDYWGQGTQVTVSS | low polyreactivity |
| QVQLVESGGGLVQAGGSLRLSCADSGRTFGRNVMGWYRQAPGKERELVASITRSGGSTYYADSVKGRFTISRDTAKNTVYLEMNSLKPEDTAVYYCAKCYYLWCSYWGPSQYDWGQGSQVTVSS | high polyreactivity |
| QVQLVESGGGLVQAGGSLRLSCADSGRTFRFNTRGWYRQAPGKEWVLVASISSSGGRTYYADSVKGRFTISRDNAKNTLYLQMHSLKPEDTAVYYCAAAAGWGARTSTYCGYDYWGQGTQVTVST | high polyreactivity |
| QVQLVESGGGLVQAGGSLRLSCADSGRTFSTYAMGWYRQAPGKERELVAAISSGGGRTYYADSVKGRFTISRDNAKNTVYLQINSLKPEDTAVYYCAADRYFRSRRSYEYWGQGTQVTVSS | low polyreactivity |
| QVQLVESGGGLVQAGGSLRLSCADSGRTNPHYAMGWYRQAPGKESEFVAAISSRGGSTYDADSVKGRFTISRDNAKNTVYVQMNSLKPEDTAVYYCAAQYDGLPRVSYGLGEFGYWGQGSQVTVSS | low polyreactivity |
